From paper PMC4536312 (Genes & Development, 2015)

How the values were obtained:
[1] = biological target: T1, U2AF23 WT;U2AF59 fragment (Schizosaccharomyces …, UniProt Q09176;P36629 1-216;93-161, |); test: ITC
T1 sequence 1: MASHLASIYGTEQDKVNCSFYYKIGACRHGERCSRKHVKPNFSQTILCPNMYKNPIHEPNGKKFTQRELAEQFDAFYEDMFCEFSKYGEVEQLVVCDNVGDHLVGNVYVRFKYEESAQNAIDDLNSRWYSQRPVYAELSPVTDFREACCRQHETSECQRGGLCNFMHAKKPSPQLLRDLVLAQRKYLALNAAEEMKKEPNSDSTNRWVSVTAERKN
T1 sequence 2: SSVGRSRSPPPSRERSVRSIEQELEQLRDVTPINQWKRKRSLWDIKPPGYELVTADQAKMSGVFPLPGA

[2] = biological target: T2, U2AF23 Q151R;U2AF59 fragment (Schizosaccharomyces …, UniProt Q09176;P36629 1-216;93-161, Q151R|); test: ITC
T2 sequence 1: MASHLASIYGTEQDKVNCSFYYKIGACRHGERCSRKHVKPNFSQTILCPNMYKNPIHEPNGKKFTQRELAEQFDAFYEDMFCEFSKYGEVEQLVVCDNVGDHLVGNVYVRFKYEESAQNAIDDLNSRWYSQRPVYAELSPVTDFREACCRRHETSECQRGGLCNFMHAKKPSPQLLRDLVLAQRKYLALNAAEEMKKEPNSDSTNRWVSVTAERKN
T2 sequence 2: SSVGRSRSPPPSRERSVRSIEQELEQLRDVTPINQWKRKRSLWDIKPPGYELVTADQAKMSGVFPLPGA

[3] = biological target: T3, U2AF23 R28S;U2AF59 fragment (Schizosaccharomyces …, UniProt Q09176;P36629 1-216;93-161, R28S|); test: ITC
T3 sequence 1: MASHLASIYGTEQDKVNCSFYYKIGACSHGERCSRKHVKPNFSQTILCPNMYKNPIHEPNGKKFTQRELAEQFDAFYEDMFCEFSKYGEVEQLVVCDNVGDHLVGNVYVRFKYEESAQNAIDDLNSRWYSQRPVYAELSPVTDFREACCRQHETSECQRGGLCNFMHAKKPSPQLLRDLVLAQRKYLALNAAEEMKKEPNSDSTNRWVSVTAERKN
T3 sequence 2: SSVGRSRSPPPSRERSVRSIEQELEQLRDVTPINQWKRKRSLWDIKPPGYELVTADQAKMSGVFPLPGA

[4] = biological target: T4, U2AF23 F20A;U2AF59 fragment (Schizosaccharomyces …, UniProt Q09176;P36629 1-216;93-161, F20A|); test: ITC
T4 sequence 1: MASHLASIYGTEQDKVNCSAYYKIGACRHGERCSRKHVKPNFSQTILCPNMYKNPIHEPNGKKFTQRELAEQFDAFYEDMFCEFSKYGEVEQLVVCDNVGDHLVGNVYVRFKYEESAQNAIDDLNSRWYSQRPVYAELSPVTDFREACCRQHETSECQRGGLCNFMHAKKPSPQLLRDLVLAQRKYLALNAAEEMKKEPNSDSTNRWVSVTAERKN
T4 sequence 2: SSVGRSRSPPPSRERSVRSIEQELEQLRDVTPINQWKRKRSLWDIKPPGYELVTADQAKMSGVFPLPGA

[5] = biological target: T5, U2AF23 R159S;U2AF59 fragment (Schizosaccharomyces …, UniProt Q09176;P36629 1-216;93-161, R159S|); test: ITC
T5 sequence 1: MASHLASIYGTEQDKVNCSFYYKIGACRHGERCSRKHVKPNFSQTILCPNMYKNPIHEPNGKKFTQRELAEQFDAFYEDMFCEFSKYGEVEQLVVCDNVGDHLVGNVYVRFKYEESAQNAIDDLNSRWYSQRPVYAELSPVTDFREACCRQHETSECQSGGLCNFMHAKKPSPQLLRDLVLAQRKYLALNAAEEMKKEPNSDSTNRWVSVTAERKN
T5 sequence 2: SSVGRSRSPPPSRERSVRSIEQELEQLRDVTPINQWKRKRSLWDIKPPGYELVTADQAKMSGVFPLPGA

[6] = biological target: T6, U2AF23 F165A;U2AF59 fragment (Schizosaccharomyces …, UniProt Q09176;P36629 1-216;93-161, F165A|); test: ITC
T6 sequence 1: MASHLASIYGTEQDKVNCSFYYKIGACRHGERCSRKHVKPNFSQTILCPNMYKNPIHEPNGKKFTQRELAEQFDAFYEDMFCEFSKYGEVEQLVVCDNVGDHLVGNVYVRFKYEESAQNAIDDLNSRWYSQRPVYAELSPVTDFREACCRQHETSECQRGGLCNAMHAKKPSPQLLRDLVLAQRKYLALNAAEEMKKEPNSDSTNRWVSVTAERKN
T6 sequence 2: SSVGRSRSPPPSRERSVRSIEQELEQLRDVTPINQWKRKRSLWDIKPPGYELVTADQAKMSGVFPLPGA

[7] = biological target: T7, U2AF23 R150S;U2AF59 fragment (Schizosaccharomyces …, UniProt Q09176;P36629 1-216;93-161, R150S|); test: ITC
T7 sequence 1: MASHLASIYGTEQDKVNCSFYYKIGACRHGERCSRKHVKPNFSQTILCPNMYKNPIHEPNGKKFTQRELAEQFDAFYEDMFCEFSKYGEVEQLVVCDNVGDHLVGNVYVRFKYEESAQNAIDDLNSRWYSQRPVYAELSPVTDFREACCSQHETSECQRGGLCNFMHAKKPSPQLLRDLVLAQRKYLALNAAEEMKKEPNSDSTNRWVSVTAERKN
T7 sequence 2: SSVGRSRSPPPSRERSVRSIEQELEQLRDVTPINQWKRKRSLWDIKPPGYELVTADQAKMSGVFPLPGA

[8] = biological target: T8, U2AF23 R35S;U2AF59 fragment (Schizosaccharomyces …, UniProt Q09176;P36629 1-216;93-161, R35S|); test: ITC
T8 sequence 1: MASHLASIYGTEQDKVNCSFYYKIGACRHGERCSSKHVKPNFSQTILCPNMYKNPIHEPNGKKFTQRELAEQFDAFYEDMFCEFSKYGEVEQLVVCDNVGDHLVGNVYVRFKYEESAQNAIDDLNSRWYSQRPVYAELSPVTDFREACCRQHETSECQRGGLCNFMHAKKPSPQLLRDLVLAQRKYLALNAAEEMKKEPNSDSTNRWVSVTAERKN
T8 sequence 2: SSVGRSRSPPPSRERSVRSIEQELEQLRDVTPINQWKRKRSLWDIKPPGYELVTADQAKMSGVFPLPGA

[9] = biological target: T9, U2AF23, the small subunit of fission yeast Schizosaccharomyces pombe U2AF (Schizosaccharomyces pombe, UniProt Q09176 1-216); test: crystal structure
T9 sequence: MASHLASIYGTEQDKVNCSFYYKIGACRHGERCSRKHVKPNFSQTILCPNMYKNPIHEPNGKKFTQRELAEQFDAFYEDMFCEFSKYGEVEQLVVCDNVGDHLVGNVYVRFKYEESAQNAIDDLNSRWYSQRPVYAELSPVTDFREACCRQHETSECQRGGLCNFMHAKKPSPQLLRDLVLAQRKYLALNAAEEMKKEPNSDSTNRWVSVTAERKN

CUCGG (ssRNA)
Kd [1]: 296 µM

CUAUG (ssRNA)
binding result [1]: no binding | Kd [2]: 53 µM

CUAGG (ssRNA)
Kd [3]: 12 µM | Kd [1]: 1.2 µM | binding result [4]: no binding | Kd [2]: 0.75 µM | binding result [5]: no binding | binding result [6]: no binding | binding result [7]: no binding | binding result [8]: no binding

CUUGG (ssRNA)
Kd [1]: 429 µM

CUACG (ssRNA)
binding result [1]: no binding

UUUUUUUUUU (ssRNA) [U10]
binding result [1]: no binding

CUGGG (ssRNA)
Kd [1]: 63 µM

B1: U2AF59 fragment spanning residues 93–161 (S. pombe U2AF large subunit) (domain or fragment)
chain: SSVGRSRSPPPSRERSVRSIEQELEQLRDVTPINQWKRKRSLWDIKPPGYELVTADQAKMSGVFPLPGA
binding result [9]: binds
